Experimental data published in article doi:10.1101/2025.10.27.684718.

Target: hsKir6.2 (Q52E) subunit of the cryo-EM KATP construct (human) (UniProt Q14654)
Assay: cryo-EM structure

- stoichiometry N: 4
Substance: hsKir6.2 (Q52E) subunit of the cryo-EM KATP construct (from UniProt Q14654 2-390) (natural protein)
